In publication PMC12258621:

What was measured:
[1] = target: dSpRY (catalytically inactive SpRY Cas9) (Streptococcus pyogenes) (UniProt Q99ZW2); assay: single-molecule AuRBT (hyperbolic fit of kC-I vs [RNP]); conditions: EMSA: 20 mM HEPES pH 7.5, 100 mM KCl, 10 mM MgCl2, 1% glycerol, 0.5 mM DTT (37 C for plasmid EMSA); footprinting: 20 mM Tris pH 7.9, 24 mM KCl, 5 mM MgCl2 …
[2] = target: dSpRY (catalytically inactive SpRY Cas9) (Streptococcus pyogenes) (UniProt Q99ZW2); assay: single-molecule AuRBT (baseline twist shift, Langmuir fit); conditions: effective Kd for off-target binding on the tether; RNP with sgRNA3; EMSA: 20 mM HEPES pH 7.5, 100 mM KCl, 10 mM MgCl2, 1% glycerol, 0.5 mM DTT (37 C for plasmid EMSA); footprinting: 20 mM Tris pH 7.9, 24 mM KCl, 5 mM MgCl2 …
[3] = target: dCas9 (catalytically inactive SpyCas9) D10A;H840A (Streptococcus pyogenes) (UniProt Q99ZW2); assay: single-molecule AuRBT (kC-I linear, no saturation); conditions: initial binding Kd,init; >1 uM proposed from literature; R-loop forms; EMSA: 20 mM HEPES pH 7.5, 100 mM KCl, 10 mM MgCl2, 1% glycerol, 0.5 mM DTT (37 C for plasmid EMSA); footprinting: 20 mM Tris pH 7.9, 24 mM KCl, 5 mM MgCl2 …
[4] = target: dSpRY (catalytically inactive SpRY Cas9) (Streptococcus pyogenes) (UniProt Q99ZW2); assay: EMSA; conditions: 40x plasmid competitor; 100 nM RNP, 10 nM DNA; EMSA: 20 mM HEPES pH 7.5, 100 mM KCl, 10 mM MgCl2, 1% glycerol, 0.5 mM DTT (37 C for plasmid EMSA); footprinting: 20 mM Tris pH 7.9, 24 mM KCl, 5 mM MgCl2 …

Sequence | Kd [1] [nM] | Kd [2] [nM] | Kd [3] [nM] | binding signal [4] [% bound]
GGCUGCGUAUUUCUACUCUGUUGUUUUAGAGCUAGAAAUAGCAAGUUAAAAUAAGGCUAGUCCGUUAUCAACUUGAAAAAGUGGCACCGAGUCGGUGCUUCG / GTCATTGTCGCGAAGTGCAGCGAGATCGCGTTTGTACTCCAAACAGAGTAGAAATACGCAGAGCAGCGATTTCTCGTGTGCAGACA / CGAAGCACCGACTCGGTGCCACTTTTTCAAGTTGATAACGGACTAGCCTTATTTTAACTTGCTATTTCTAGCTCTAAAACAACAGAGTAGAAATACGCAGCC [sgRNA3 + Target1 NGG DNA tether] | 10 | 15 | > 80 | 
GGGACGCAUAAAGAUGAGACAAGUUUUAGAGCUAGAAAUAGCAAGUUAAAAUAAGGCUAGUCCGUUAUCAACUUGAAAAAGUGGCACCGAGUCGGUGCUUCG / CGCTCATGCTGACGCATAAAGATGAGACAATGGCGATTACAGTACGTGCG / CGCACGTACTGTAATCGCCATTGTCTCATCTTTATGCGTCAGCATGAGCG [sgRNA2 + matched target duplex (0-20 bp)] |  |  |  | 2
GGGACGCAUAAAGAUGAGACAAGUUUUAGAGCUAGAAAUAGCAAGUUAAAAUAAGGCUAGUCCGUUAUCAACUUGAAAAAGUGGCACCGAGUCGGUGCUUCG / CGCTCATGCTGACGCATAAAGATGAGAGTTTGGCGATTACAGTACGTGCG / CGCACGTACTGTAATCGCCATTGTCTCATCTTTATGCGTCAGCATGAGCG [sgRNA2 + target duplex with MM bubble next to PAM (3-20 bp)] |  |  |  | 29
